Results published in US12365710B2, “HMGB1 protein derivatives for the removal of biofilms” (RESEARCH INSTITUTE AT NATIONWIDE CHILDREN'S HOSPITAL, priority 2018, dated 2025).

Columns and labels:
[1] = test system: Klebsiella pneumoniae biofilms; assay: in vitro disruption of pre-formed biofilms, LIVE/DEAD, CLSM and COMSTAT; assay type: cell-based; conditions: for % reduction in average thickness (AT), mean±SE / % reduction in biomass (BM), mean±SE: 200 nM added to pre-formed biofilms at 24 h, read at 40 h, vs untreated KP biofilms; for disruption of established K. pneumoniae biofilms (average thickness, biomass): 200 nM added at 24 h, 16 h incubation
Description: (§1) FIGS. 5A-5E: Anti-biofilm effect of HMGB1 variants on high priority bacterial pathogens. Indicated HMGB1 variants or antibodies against DNABII proteins (α-1HFEc 1gG, 1 μM) were added at 24 h to the respective preformed bacterial biofilms, in vitro. After 16 h of Incubation, biofilms were stained with LIVE/DEAD®, then visualized via confocal laser scanning microscopy. Images were analyzed by COMSTAT to calculate average thickness and comparison to control was plotted. (FIG. 5A) Full-length HMGB1 isoforms (200 nM unless otherwise indicated) added to UPEC, B. cenocepacia, NTHI, or ESKAPE pathogens. 800 nM rHMGB1 and 200 nM mHMGB1 were added for S. aureus (ESKAPE). 800 nM rHMGB1, 800 nM mHMGB1, or 3.3 μM of α-1HFEc 1gG were added for E. faecium (ESKAPE) and were incubated for 1 h as opposed to 16 h to avoid potential degradation by E. faecium proteases. (FIG. 5B) Representative images of UPEC biofilms incubated with increasing concentrations of rHMGB1. (FIG. 5C) Individual domains of HMGB1 (200 nM) were tested for anti-biofilm activity as above (dotted line indicates control values). Bars represent the SEM. Statistical significance compared to control was assessed with unpaired t-tests, *P<0.05. […] (FIGS. 5D-5E) HMGB1 and variants disrupt preformed Klebsiella pneumoniae biofilms. rHMGB1, HMGB1 C45S (mHMGB1), bovine HMGB1 (bHMGB1), B box, B Box C106S (mB Box), A Box, and A+B Box were added (200 nM) at 24 h to preformed K. pneumoniae biofilms. After 16 h of incubation, biofilms were stained with LIVE/DEAD®, then visualized via confocal laser scanning microscopy. Images were analyzed by COMSTAT to calculate average thickness and total biomass. Error bars represent the SEM. ***P<0.0001; ns=not significant.
An in vitro biofilm assay was used to test the effect of HMGB1 and its variants on established bacterial biofilms. Applicant expressed, (in E. coli) and purified >95% human recombinant full length HMGB1 (rHMGB1; 1-215), a C45S mutated variant (mHMGB1) and the HMGB1 domains A Box (1-89), A+B Boxes (1-176), B Box (80-179), and B Box C106S (mB Box) (FIG. 3). […] To evaluate the effect of HMGB1 and its variants as well as a commercially available native bovine HMGB1 (used as a control) on established bacterial biofilms, each protein was added (at 200 nM), to pre-formed Klebsiella pneumoniae biofilms after 24 h of growth. After a 16 h incubation (40 h total biofilm growth), the biofilms were stained with LIVE/DEAD® and analyzed using confocal laser scanning microscopy (CLSM) and COMSTAT analysis to calculate the average thickness and total biomass of the biofilms. […] The results of this study lead to a noteworthy observation that a single dose of these non-antimicrobial compounds was able to disrupt recalcitrant biofilms. In addition, the HMGB1 variants have disrupted every bacterial species tested to date, which includes Uropathogenic E. coli, Burkholderia cenocepacia, Nontypeable Haemophilus influenzae (FIG. 6). A single dose at this concentration released of bacteria from their protective shield makes them vulnerable to clearance by antibiotics and the immune system.
Klebsiella pneumoniae (KP), a common cause of nosocomial infections was used for all BBs disruption assays. Human recombinant full length HMGB1 (rHMGB1; 1-215), a C45S mutation variant (mHMGB1) and the HMGB1 domains A Box (1-89), B Box (90-176), AB Boxes (1-176), B-linker Box (80-179), and B-linker Box C106S were expressed (in E. coli) and purified to >95%. To evaluate the effect of rHMGB1 and the various domains on established BBs, each protein species (200 nM) was added to pre-formed BBs at 24 h. At 40 h the BBs were washed, stained with LIVE/DEAD®, visualized via confocal laser scanning microscopy and images were analyzed by COMSTAT to calculate average thickness and biomass.

[2] = test system: NTHI biofilm; assay: in vitro disruption of established biofilms, CLSM and COMSTAT; assay type: cell-based, Nontypeable Haemophilus influenzae; conditions: 200 nM added at 24 h, 16 h exposure
Description: as §1
(§2) HMGB1 disrupts pathogenic biofilms: To test the effect of HMGB1 on bacterial biofilms (FIG. 5), Applicant cloned (IMPACT®, NEB Ipswich, MA), expressed (in E. coli), and purified (heparin sepharose chromatography to >95% purity) tagless human recombinant HMGB1 (rHMGB1) and an engineered C45 S variant (mHMGB1) that mimics the reduced form of HMGB1. rHMGB1 readily forms an intramolecular disulfide bond between C23 and C45 that contributes to pro-inflammatory activity whereas mHMGB1 cannot. These HMGB1 isoforms were evaluated for ability to disrupt established biofilms (formed for 24 h prior to addition). After a 16 h exposure to a single dose of rHMGB1 (200 nM; ˜25-fold greater than typical sepsis serum concentration, but not able to directly induce sepsis), biofilms formed by a wide variety of high priority species were stained with LIVE/DEAD®, analyzed using confocal laser scanning microscopy (CLSM) and COMSTAT analysis and compared to control biofilms. […] Preliminary analysis of PTMs by LC-MS/MS analysis (MS Bioworks, LLC Ann Arbor, MI) indicated minimal modification of both rHMGB1 and nHMGB1 (<20% of the observed peptides had any given PTM, FIG. 1C). […] Thus, while there are intrinsic differences in sensitivity among pathogens, the biofilms formed by all of the tested high priority pathogens were susceptible to a single dose of these non-antimicrobial compounds.
HMGB1 domain structure and anti-biofilm activity: Applicant then produced recombinant HMGB1 truncation variants, of 1) the A Box, a self-contained DNA-binding domain (residues 1-89); 2) an A-B Boxes construct (lacks the C tail; residues 1-185); and 3) the B Box (residues 80 to 176, FIGS. 1A and 1C). […]

[3] = test system: UPEC biofilm; assay: as above; assay type: cell-based, Uropathogenic E. coli; conditions: added at 24 h, 16 h exposure; 200 nM unless stated
Description: as §1, §2
HMGB1 domain structure and anti-biofilm activity: Applicant then produced recombinant HMGB1 truncation variants, of 1) the A Box, a self-contained DNA-binding domain (residues 1-89); 2) an A-B Boxes construct (lacks the C tail; residues 1-185); and 3) the B Box (residues 80 to 176, FIGS. 1A and 1C). […] Since only the B Box can modulate DNA bending, without being bound by theory, it was hypothesized that HMGB1 disrupts biofilms at least in part via DNA-binding/bending. As the B Box is reported to contain pro-inflammatory activity, mediated primarily through interactions with TLR4-MD2 that are dependent on residue C106, Applicant created a modified B Box variant (mB Box) with a C106S mutation (FIGS. 1A and 1C).

[4] = test system: B. cenocepacia biofilm; assay type: cell-based, Burkholderia cenocepacia; conditions: 200 nM added at 24 h, 16 h exposure
Description: Indicated HMGB1 variants or antibodies against DNABII proteins (α-1HFEc 1gG, 1 μM) were added at 24 h to the respective preformed bacterial biofilms, in vitro. After 16 h of Incubation, biofilms were stained with LIVE/DEAD®, then visualized via confocal laser scanning microscopy. Images were analyzed by COMSTAT to calculate average thickness and comparison to control was plotted. (FIG. 5A) Full-length HMGB1 isoforms (200 nM unless otherwise indicated) added to UPEC, B. cenocepacia, NTHI, or ESKAPE pathogens. 800 nM rHMGB1 and 200 nM mHMGB1 were added for S. aureus (ESKAPE). 800 nM rHMGB1, 800 nM mHMGB1, or 3.3 μM of α-1HFEc 1gG were added for E. faecium (ESKAPE) and were incubated for 1 h as opposed to 16 h to avoid potential degradation by E. faecium proteases. […] (FIG. 5C) Individual domains of HMGB1 (200 nM) were tested for anti-biofilm activity as above (dotted line indicates control values). Bars represent the SEM. Statistical significance compared to control was assessed with unpaired t-tests, *P<0.05. […] After 16 h of incubation, biofilms were stained with LIVE/DEAD®, then visualized via confocal laser scanning microscopy. Images were analyzed by COMSTAT to calculate average thickness and total biomass. Error bars represent the SEM. ***P<0.0001; ns=not significant.

Row | Molecule | % reduction in average thickness (AT), mean±SE [1] | % reduction in biomass (BM), mean±SE [1] | disruption of established NTHI biofilms [2] | disruption of established UPEC biofilms [3] | disruption of established Bc biofilms [4] | disruption of established K. pneumoniae biofilms (average thickness, biomass) [1]
1 | B-Box: HMGB1 domain B Box (90-176), listed beside B-linker Box in Experiment No. 1 (protein, UniProt P09429 90-176, looked up, fragment) KDPNAPKRPPSAFFLFCSEYRPKIKGEHPGLSIGDVAKKLGEMWNNTAADDKQPYEKKAAKLKEKYEKDIAAYRAKGKPDAAKKGVV | 63%±0.1 | 68%±0.02 | – | – | – | –
2 | A Box: HMGB1 domain A Box (1-89) with C-terminal linker, lacks B box and C tail (protein, UniProt P09429 1-89, looked up, fragment, C-terminal linker, HMGB1 domain A Box (1-89) with C-terminal linker, lacks B box and C tail) MGKGDPKKPRGKMSSYAFFVQTCREEHKKKHPDASVNFSEFSKKCSERWKTMSAKEKGKFEDMAKADKARYEREMKTYIPPKGETKKKF | – | – | no significant effect | no significant effect | no significant effect | no significant effect
3 | nHMGB1: native HMGB1 purified from calf thymus (Chondrex, Inc), commercially available, used as a control (protein, UniProt P10103 2-215, looked up) High mobility group protein B1: GKGDPKKPRGKMSSYAFFVQTCREEHKKKHPDASVNFSEFSKKCSERWKTMSAKEKGKFEDMAKADKARYEREMKTYIPPKGETKKKFKDPNAPKRPPSAFFLFCSEYRPKIKGEHPGLSIGDVAKKLGEMWNNTAADDKQPYEKKAAKLKEKYEKDIAAYRAKGKPDAAKKGVVKAEKSKKKKEEEEDEEDEEDEEEEEDEEDEEEEEDDDDE | – | – | equivalently disrupted | equivalently disrupted | equivalently disrupted | equivalently disrupted
4 | AB Boxes: HMGB1 A and B domains (1-176), lacks the C tail (protein, UniProt P09429 1-176, looked up, fragment) MGKGDPKKPRGKMSSYAFFVQTCREEHKKKHPDASVNFSEFSKKCSERWKTMSAKEKGKFEDMAKADKARYEREMKTYIPPKGETKKKFKDPNAPKRPPSAFFLFCSEYRPKIKGEHPGLSIGDVAKKLGEMWNNTAADDKQPYEKKAAKLKEKYEKDIAAYRAKGKPDAAKKGVV | 64%±0.08 | 73%±0.02 | retained full anti-biofilm activity | retained full anti-biofilm activity | retained full anti-biofilm activity | retained full anti-biofilm activity
